The target of one assay is T1, Notch2 on OLN-93 cells (rat, UniProt Q9QW30 26-2471).
T1 construct: whole, on cells; also called OLN cells
Put plainly: OLN-93 cell adhesion to control substrate. As to the method: (§1) This was carried out as previously described (Xiao et al, 1996). Briefly, 35 mm tissue culture petri dishes (Becton Dickinson) were coated with methanol solubilized nitrocellulose (Lagenaur and Lemon, 1987) and air-dried under a sterile hood. […] Subsequently, the dishes were washed three times with calcium- and magnesium-free Hank's balanced salt solution (CMF-HBSS) and blocked overnight with 2% heat-inactivated fatty acid-free BSA (Sigma) in CMF-HBSS (this blocking step is skipped in the repulsion test). […] After 0.5 hour (in the adhesion test) or 12 hours (in the repulsion test), the dishes were gently washed three times with CMF-HBSS and the cells were fixed with 2.5% glutaldehyde in CMF-HBSS. […] Cells adhering to the various spots were photographed and counted. The results were analyzed by Student's t test with p<0.05 and p<0.01 being considered significant or highly significant difference, respectively.

The target in the next assay is T2, Notch1 on OLN-93 cells (rat, UniProt Q07008 19-2531).
T2 construct: whole, on cells; OLN-93 cells carry both Notch1 and Notch2; also called OLN cells
Put plainly: OLN-93 cell adhesion to control substrate. The method, then:
as §1

For assay [1], the target named is T3, Kv1.1 (native, mouse brain extracts) (mouse, UniProt P16388 1-495).
T3 construct: also called Kv1.1 K+ channel alpha-subunit
T3 sequence (P16388 whole entry): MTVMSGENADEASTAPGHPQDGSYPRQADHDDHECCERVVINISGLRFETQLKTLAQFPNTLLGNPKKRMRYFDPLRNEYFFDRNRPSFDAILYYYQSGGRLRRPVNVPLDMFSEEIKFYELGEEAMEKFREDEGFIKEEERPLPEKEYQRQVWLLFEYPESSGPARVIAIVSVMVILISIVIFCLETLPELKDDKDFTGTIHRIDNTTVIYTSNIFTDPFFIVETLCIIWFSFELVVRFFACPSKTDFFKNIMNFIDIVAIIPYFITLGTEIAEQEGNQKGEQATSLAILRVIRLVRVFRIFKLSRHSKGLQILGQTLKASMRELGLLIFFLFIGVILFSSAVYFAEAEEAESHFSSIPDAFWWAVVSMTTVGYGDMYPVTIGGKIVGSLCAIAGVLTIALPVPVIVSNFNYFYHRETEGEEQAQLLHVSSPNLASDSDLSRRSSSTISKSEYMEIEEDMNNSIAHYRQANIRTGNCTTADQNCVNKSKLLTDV
Put plainly: GST pull-down from adult mouse brain membrane extracts. The text has this: (§2) During myelination, the proper segregation of K^+ channels to juxtaparanodes requires an intact paranodal axoglial junction (Vabnick and Shrager, 1998).

Assay [2] concerns the target T4, Caspr (native, mouse brain) (mouse, UniProt O54991 21-1385).
T4 construct: also called mouse Caspr
T4 sequence (looked up): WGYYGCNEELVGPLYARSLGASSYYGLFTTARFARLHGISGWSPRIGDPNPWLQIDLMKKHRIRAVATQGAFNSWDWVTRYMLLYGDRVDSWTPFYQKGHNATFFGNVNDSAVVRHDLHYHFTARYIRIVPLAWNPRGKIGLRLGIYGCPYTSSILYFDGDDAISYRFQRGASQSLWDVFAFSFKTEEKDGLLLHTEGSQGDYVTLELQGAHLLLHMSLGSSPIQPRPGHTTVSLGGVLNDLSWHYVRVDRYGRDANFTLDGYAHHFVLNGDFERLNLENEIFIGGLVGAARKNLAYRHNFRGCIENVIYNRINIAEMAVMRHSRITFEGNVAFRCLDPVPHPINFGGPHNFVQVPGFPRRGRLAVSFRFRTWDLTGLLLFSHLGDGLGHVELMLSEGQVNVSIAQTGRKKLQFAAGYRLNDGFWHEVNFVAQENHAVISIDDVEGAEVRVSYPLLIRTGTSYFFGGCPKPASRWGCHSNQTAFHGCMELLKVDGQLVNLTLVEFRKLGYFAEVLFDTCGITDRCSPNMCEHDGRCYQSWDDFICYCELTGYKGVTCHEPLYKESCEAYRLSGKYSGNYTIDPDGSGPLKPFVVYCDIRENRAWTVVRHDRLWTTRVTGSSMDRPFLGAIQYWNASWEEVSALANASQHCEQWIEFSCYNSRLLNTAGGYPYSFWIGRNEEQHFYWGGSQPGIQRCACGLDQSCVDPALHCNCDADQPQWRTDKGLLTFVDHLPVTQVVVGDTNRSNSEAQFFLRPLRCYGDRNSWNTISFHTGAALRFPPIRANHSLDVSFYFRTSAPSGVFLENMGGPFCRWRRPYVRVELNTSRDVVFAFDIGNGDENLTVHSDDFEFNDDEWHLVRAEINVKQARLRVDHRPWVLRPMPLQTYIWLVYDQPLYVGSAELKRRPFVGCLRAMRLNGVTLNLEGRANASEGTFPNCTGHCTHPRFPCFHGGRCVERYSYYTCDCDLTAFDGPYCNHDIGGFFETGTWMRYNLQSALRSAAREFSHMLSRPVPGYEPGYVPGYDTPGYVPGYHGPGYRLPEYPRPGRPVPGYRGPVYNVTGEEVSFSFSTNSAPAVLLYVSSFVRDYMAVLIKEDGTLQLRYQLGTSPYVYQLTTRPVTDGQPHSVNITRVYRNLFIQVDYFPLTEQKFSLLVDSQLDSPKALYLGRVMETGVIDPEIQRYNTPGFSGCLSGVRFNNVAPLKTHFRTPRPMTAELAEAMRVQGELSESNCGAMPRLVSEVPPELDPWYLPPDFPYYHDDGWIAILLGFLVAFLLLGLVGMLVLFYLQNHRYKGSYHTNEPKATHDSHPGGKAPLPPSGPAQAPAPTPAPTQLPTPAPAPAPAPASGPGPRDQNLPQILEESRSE
The assay is described as above.
From the text: as §2

Assay [3] deals with T5, F3 on F3-transfected CHO cells (UniProt P12960 21-1001).
T5 construct: whole, on cells; also called F3-CHO; F3-expressing CHO cells
T5 sequence (looked up): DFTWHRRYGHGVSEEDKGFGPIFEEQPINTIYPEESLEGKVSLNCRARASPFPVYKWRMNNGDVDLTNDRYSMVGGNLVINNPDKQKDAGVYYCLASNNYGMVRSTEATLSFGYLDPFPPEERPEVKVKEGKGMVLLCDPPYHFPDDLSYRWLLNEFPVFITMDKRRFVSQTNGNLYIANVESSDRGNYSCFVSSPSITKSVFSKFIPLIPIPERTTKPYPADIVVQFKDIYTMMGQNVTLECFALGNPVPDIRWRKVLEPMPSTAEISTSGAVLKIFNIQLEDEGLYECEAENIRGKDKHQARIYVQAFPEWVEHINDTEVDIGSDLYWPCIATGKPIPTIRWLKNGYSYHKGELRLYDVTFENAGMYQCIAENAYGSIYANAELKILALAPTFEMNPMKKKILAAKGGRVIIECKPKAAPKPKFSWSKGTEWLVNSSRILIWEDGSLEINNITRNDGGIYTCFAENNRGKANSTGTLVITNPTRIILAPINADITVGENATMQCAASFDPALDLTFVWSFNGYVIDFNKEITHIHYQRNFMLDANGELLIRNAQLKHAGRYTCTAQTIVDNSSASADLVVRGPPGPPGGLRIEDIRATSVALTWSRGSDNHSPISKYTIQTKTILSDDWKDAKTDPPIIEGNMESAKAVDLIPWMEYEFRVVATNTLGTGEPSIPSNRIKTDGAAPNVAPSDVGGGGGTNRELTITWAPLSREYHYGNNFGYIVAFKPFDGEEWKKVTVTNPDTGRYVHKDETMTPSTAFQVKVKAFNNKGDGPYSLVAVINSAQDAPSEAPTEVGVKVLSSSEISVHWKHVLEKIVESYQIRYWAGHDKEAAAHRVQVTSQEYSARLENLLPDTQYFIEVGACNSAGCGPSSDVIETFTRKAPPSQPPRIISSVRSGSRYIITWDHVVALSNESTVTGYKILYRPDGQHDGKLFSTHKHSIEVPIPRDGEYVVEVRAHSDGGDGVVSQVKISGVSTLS
Put plainly: cell adhesion assay, F3-CHO cells on coated substrate.

Consider two molecules from patent publication US8273855 (JIANGSU NOVAVAC BIO TEC, dated 2012).

T1 sequence (Q9QW30 26-2471): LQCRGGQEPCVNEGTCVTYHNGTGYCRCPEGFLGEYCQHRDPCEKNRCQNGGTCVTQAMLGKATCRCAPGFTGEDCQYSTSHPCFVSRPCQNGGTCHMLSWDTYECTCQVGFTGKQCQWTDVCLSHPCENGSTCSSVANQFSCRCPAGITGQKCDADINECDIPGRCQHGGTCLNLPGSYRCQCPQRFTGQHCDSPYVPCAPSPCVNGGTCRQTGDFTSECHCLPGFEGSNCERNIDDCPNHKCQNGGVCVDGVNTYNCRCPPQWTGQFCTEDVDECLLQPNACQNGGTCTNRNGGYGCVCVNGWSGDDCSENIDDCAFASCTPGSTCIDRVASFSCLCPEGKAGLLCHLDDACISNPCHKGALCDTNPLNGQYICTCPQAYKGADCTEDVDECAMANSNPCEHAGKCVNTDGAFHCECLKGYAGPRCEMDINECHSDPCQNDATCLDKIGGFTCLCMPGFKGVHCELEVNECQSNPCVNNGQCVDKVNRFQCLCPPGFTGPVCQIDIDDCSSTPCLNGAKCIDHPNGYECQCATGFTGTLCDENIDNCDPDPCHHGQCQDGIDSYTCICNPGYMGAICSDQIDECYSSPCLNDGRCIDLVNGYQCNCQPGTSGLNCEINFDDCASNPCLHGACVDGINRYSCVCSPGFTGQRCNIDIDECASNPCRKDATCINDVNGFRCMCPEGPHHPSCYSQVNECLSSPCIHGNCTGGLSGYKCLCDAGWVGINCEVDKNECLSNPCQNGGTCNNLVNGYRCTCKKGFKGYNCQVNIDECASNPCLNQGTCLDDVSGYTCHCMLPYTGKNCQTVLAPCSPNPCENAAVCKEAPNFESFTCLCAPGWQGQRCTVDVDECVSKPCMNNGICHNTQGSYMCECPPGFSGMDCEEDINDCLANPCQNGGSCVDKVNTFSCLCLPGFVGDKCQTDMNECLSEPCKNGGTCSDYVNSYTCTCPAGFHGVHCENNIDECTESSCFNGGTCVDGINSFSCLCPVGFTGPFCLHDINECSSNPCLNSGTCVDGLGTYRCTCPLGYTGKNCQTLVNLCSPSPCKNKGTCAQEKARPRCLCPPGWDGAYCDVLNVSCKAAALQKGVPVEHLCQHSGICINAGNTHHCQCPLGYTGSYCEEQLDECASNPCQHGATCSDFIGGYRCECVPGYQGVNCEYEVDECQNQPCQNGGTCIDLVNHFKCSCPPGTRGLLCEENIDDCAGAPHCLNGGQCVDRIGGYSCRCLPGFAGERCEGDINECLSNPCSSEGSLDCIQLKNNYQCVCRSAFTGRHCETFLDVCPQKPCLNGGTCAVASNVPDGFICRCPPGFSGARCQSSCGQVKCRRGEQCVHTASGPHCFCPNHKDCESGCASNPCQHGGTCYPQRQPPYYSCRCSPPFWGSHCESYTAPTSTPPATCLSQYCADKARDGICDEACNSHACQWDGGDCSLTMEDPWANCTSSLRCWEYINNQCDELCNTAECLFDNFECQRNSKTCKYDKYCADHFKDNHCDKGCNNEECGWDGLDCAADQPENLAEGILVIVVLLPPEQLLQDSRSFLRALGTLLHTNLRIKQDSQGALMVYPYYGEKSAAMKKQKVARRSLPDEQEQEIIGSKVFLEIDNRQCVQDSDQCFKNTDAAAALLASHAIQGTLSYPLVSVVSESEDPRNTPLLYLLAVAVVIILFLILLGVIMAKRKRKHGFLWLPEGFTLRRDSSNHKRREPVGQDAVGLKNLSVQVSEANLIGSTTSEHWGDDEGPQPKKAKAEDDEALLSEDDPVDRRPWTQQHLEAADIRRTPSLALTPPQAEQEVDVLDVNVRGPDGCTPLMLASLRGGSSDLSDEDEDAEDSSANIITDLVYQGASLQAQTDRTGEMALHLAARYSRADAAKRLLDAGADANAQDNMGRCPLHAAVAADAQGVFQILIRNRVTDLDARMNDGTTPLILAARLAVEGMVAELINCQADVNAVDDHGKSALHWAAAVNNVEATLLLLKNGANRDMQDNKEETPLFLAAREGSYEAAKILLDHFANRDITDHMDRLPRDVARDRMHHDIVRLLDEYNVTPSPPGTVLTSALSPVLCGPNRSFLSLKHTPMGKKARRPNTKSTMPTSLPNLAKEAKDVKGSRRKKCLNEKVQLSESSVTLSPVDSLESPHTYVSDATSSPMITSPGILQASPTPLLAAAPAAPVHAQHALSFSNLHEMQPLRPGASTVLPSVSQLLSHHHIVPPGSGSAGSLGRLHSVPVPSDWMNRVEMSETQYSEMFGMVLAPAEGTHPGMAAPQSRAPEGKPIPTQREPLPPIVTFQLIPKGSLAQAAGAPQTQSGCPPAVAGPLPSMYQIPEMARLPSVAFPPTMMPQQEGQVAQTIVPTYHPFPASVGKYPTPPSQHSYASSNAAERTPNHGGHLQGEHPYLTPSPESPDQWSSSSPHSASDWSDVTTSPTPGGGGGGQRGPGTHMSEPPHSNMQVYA

B1: CHL1-Fc (Fc fusion, UniProt P70232 26-1083, looked up)
chain: EIPLSVQQVPTIVKQSYVQVAFPFDEYFQIECEAKGNPEPIFSWTKDDKPFDLSDPRIIAANNSGTFKIPNEGHISHFQGKYRCFASNRLGTAVSEEIEFIVPGVPKFPKEKIEPIDVEEGDSIVLPCNPPKGLPPLHIYWMNIELEHIEQDERVYMSQRGDLYFANVEENDSRNDYCCFAAFPKLRTIVQKMPMKLTVNSSNSIKQRKPKLLLPPAQMGSLSAKTVLKGDTLLLECFAEGLPTPHIQWSKPGSELPEGRATIEVHEKTLKIENISYQDRGNYRCTANNLLGKASHDFHVTVEEPPRWKKKPQSAVYSTGSSGILLCEAEGEPQPTIKWRLNGLPIEKHPFPGDFMFPREISFTNLLPNHTGVYQCEASNIHGTILANANIDVIDVIPLIKTKNEENYATVVGYSAFLHCEYFASPKATVVWEVADETHPLEGDRYHTHENGTLEIYRTTEEDAGSYSCWVDNAMGKAVITANLDIRNATKLRVSPKNPRIPKSHVLELYCESQCDSHLKHSLKLSWSKDGEAFEMNGTEDGRIVIDGAYLTISNITAEDQGVYSCSAQTSLDSTSEKTQVTVLGVPDPPGNLHLSERQNRSVRLSWEAGDDHNSKISEYIVEFEGNREEPGKWEELTRVQGEETDVVLSLAPYVRYQFRVTAVNEVGRSHASLPSDHHETPPAAPDKNPQNIRVQASQPKEMIIKWEPLKSMEQNGPGLEYKVSWKPQGAPEEWEEEIVTNHTLRVMTPTVYAPYDVKVQAINQLGSSPDPQPVTLYSGEDYPSTAPVIQRVDVMNSTLVKVTWSSIPKETVHGLLRGYQINWWKTKSLLDGRTHPKEVNILRFSGQRNSGMVPSLDPFSEFHLTVLAYNSKGAGPESEPYIFQTPEGVPEQPSFLKVIKVDKDTATLSWGLPKKLNGNLTGYLLQYQIINDTYELGELNEINVTTPSKSSWHLSNLNSTTKYKFYLRACTSRGCGKPISEEGATLGEGSKGIRKITEGVNVTQKIHPVEVLVPGAEHIVHLMTKNWGDNDSIFQDVIETRGREYAGLYDDISTQGW
notes: Control substrate; also called CHL-Fc; not shown: human IgG Fc
For B1, the binding result with Notch2 on OLN-93 cells and in the assay with Notch1 on OLN-93 cells was “no binding (tested: 2.5 µl of 12 µM CHL1-Fc spotted)” each time.

B2: GST-Nogo-N (other, human, UniProt Q9NQC3 186-370, looked up)
chain: DETLFALPAASEPVIRSSAENMDLKEQPGNTISAGQEDFPSVLLETAASLPSLSPLSAASFKEHEYLGNLSTVLPTEGTLQENVSEASKEVSEKAKTLLIDRDLTEFSELEYSEMGSSFSVSPKAESAVIVANPREEIIVKNKDEEEKLVSNNILHNQQELPTALTKLVKEDEVVSSEKAKDSFN
notes: domain: cytoplasmic N-terminal domain of Nogo-A (Nogo-N); also called Nogo-N-GST; Nogo-N-terminal-GST; not shown: glutathione S-transferase (GST) encoded by vector pGEX-KG
Regarding B2, the results for the binding result in assay [1], in assay [2] and in assay [3] were “no binding (tested: 20 µg bead-bound protein)”, “no binding (tested: 20 µg bead-bound protein)” and “no binding”, respectively.
